The values that follow come from the nanobody polyreactivity screen of Harvey et al. (2022).

This data set in a line: yeast display, Sf9 membrane polyspecificity reagent, FACS + sequencing; frameworks hold sequencing errors. The method in brief: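 Nanobodies from a synthetic yeast display library (Saccharomyces cerevisiae BJ5465), induced 36–48 hours with galactose, were stained 1 hour at 4 °C with 10% biotinylated, detergent-solubilized Sf9 membrane reagent, enriched on streptavidin microbeads, then FACS-sorted. Anti-HA (expression) and streptavidin (reagent binding) fluorescence set low and high (top ~1%) gates. Polyreactivity labels come from the gate of origin. Genes were colony-PCR amplified, MiSeq 2 × 250 sequenced and filtered by CDR length.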
Take “QVQLVESGGGLVQAGGSLRISCAASGSIFTINAMGWYRQAPGKERELVARITSVDSTNYADSVKGRFTISRDNAKNNVHLQMNSLKPEDTAVYYCNATFGYPFVDYDDYWGQGTQVTVSS”: the “polyreactivity (PSR sort gate)” value is listed as “low polyreactivity”.

Take “QVQLVESGGGLVQAGGSLRISCAASGSIFTPNAMGWYRQAPGKERELVAAISSSSDRTYYADSVKGRFTISRDNAKNTVYLQMNSLKPEDTAVYYCNAYYRYGIQFDYWGQGTQVTVSS”: the “polyreactivity (PSR sort gate)” value is “high polyreactivity”.

“QVQLVESGGGLVQAGGSLRISCAASGSIFTRYAMGWYRQAPGKERELVAAIRTSGGSTYYADSVKARFTISRDNAKNTVYFQMNSLKPEDTAVYYCARRYYKSNFYYWGQGTLVTVSS”: the “polyreactivity (PSR sort gate)” value was “high polyreactivity”.

Turning to “QVQLVESGGGLVQAGGSLRISCAASGSIFYVYAMGWYRQAPGKERELVATISTGGSTYYADSVKGRFTISRDNAKNTVYLQMNSLKPEDTAVYYCNAQFTPRYWGGYDSWGQGTQVTVSS”, the “polyreactivity (PSR sort gate)” value was “low polyreactivity”.

For “QVQLVESGGGLVQAGGSLRISCAASGSILFGNAMGWYRQAPGKERELVAAITVSGGSTYYADSVKGRFTISRDNAKNTVYLQMNSLKPEDTAVYYCAAVSLFRDSQFDYWGQGTQVTVSS”, the “polyreactivity (PSR sort gate)” value is “low polyreactivity”.

Take “QVQLVESGGGLVQAGGSLRISCAASGSTFASTALGRYRLAAGKEMELVASISGSGGSTFYADSVKGRFTISRDNAKNTVYLQMNSLKPEDTEVYYCAAYKEPYYEEYGYGGQGTQVTVSS”: the “polyreactivity (PSR sort gate)” value is reported as “low polyreactivity”.

In the case of “QVQLVESGGGLVQAGGSLRISCAASGSTFFLYAMGWYRQAPGKERELVAAISTTGGSTNYADSVKGRFTISRDNAKYTFELQINSLKPEDTAVYYCAAGPSAQSIYDHWGQGTQVTVSS”, the “polyreactivity (PSR sort gate)” value is on record as “low polyreactivity”.

In the case of “QVQLVESGGGLVQAGGSLRISCAASGSTFKIYAMGWYRQAPGKERELVAAITGGGSSTYYADSVKGRFTISRDNSKNTVYLQMNSLKPEDTAVYYCAADLSGADSTGDYYYWGQGTQVTVSS”, the “polyreactivity (PSR sort gate)” value is given as “low polyreactivity”.

“QVQLVESGGGLVQAGGSLRISCAASGSTFLINAMGWYRQAPGKERELVAAIRYSGGRTYYADSVKGRFTISRDNAKNTVYLQMNSLKPEDTAVYYCNARPYRSQIGVHYDYWGQGTQVTVSS”: the “polyreactivity (PSR sort gate)” value was “high polyreactivity”.

As for “QVQLVESGGGLVQAGGSLRISCAASGSTFLYYAMGWYRQAPGKERELVAAISWDGGNTYYADSVKGRFTISRDNAKNTVYLQMNSLKPEDTAVYYFAAKHYGSYLYWFGSDYWGQGTQVTVSS”, the “polyreactivity (PSR sort gate)” value is recorded as “high polyreactivity”.

“QVQLVESGGGLVQAGGSLRISCAASGSTFSDYDMVWYRQAPGKERELVAAISKRGGSTDYADSVKGRFTFSRDNAKITVYLQMNSLKPEDTAVYYCAKDGTHGYDYWGQGTQVTVSS”: the “polyreactivity (PSR sort gate)” value is “low polyreactivity”.

In the case of “QVQLVESGGGLVQAGGSLRISCAASGSTFVSYAMGWYRQAPGKERELVATISWRGGSTYYADSVKGRFTISRDNAKNRDYLHMNSLNPEDTAVYYCAADLWHSQYYYGYEYWGQGSQVTVSS”, the “polyreactivity (PSR sort gate)” value is “low polyreactivity”.

As to “QVQLVESGGGLVQAGGSLRISCAASGSTIGVNAMGLYRQAPGKEMELVAAISVSGGRTYYADSVKGRFTISRDYAKNTVYLQMNSLKPEDTAVYYCAATTYIWPYDYWGQGTQVNVSS”, the “polyreactivity (PSR sort gate)” value is on record as “low polyreactivity”.

Take “QVQLVESGGGLVQAGGSLRISCAASGSTLRSNAMGWYRQAPGKERELVASISSGGSTSYADSVKGRFPISRDNAKNTVYFQMNSLKPEDTAVLYCAADGTLTLYRYILDYWGQGTQVTVSS”: the “polyreactivity (PSR sort gate)” value is “low polyreactivity”.

For the sequence “QVQLVESGGGLVQAGGSLRISCAASGSTSLYYAMGWYSQAPGKEREFVAANTWSGGSTYYADSVKGRFTISRDNAKNSVYLQMNSLQPVDTAVDYWAARSYGYSAGYYWRQGTQVTVSS”, the “polyreactivity (PSR sort gate)” value is “high polyreactivity”.

In the case of “QVQLVESGGGLVQAGGSLRISCAASGYIFKYAMGWYRQAPGKERELVAAISRRGGSTYYADSVKGRFTISRDNAKNTVYLQMNSLKPEDTEVYYCAARLPGYYGIGDYWGQGTQVTVSS”, the “polyreactivity (PSR sort gate)” value was “high polyreactivity”.

On to “QVQLVESGGGLVQAGGSLRISCAATGRIFGPYTMGWYRQAPGKERELVARISRRGGSTYYADSVKGRFTISRDNAKNTVYFQMNSLKPEDTAVYYCARSQAVYDGWFAKFGYWGQGTQVTVSS”, for which the “polyreactivity (PSR sort gate)” value was “high polyreactivity”.

Take “QVQLVESGGGLVQAGGSLRISCAAYGTIFSDYAMGWYKQAPGKERELVAAISSGGNTNYADSVKGRFTISRDNAKNTVYLQMNSLKPEDTAVYYCAAVYNTTYTLLPEYSDVKYYYWGQGTQVTVSS”: the “polyreactivity (PSR sort gate)” value was “low polyreactivity”.

Regarding “QVQLVESGGGLVQAGGSLRISCADSGSIFRRYAMGWYRQAPGKERELVAAISIGGGSTYYADSVKGRFTISRDNAKNTVYLLMTSLKPEDTAVYYCNKVEYDGAYDYWGQGTQVTVSS”, the “polyreactivity (PSR sort gate)” value is “low polyreactivity”.

For “QVQLVESGGGLVQAGGSLRISCAPSGIIFGYNVMGRYRQAPGKERELVAAISGSGASTYYADSVKGRFTISRDNAKNTVYLQMNSLKPEDTAVYYCARYRGYWGRYYGVDYGYWGQGTQVTVSS”, the “polyreactivity (PSR sort gate)” value is given as “high polyreactivity”.

Turning to “QVQLVESGGGLVQAGGSLRISCAPSGSTFPHNAMGWYRQAPGKERELVAAISSIGVRTYYADSVKGRFTISRDNAKNTVYLQMNSLKPEDTAVYYCAAEYDGPYTWVEYYYHYGYWGQGTQVTVSS”, the “polyreactivity (PSR sort gate)” value is on record as “high polyreactivity”.

With “QVQLVESGGGLVQAGGSLRISCDASGSTLRGYSIGWYRQAPGKERELVAAISRRGSGTYYADSVKGRFTISRDNAKNTVYLQMNSLKPEDTAVYYCNAVNGDYEFGYWGQGTQVTVSS”, the “polyreactivity (PSR sort gate)” value was “high polyreactivity”.

“QVQLVESGGGLVQAGGSLRISFAASGFTFNLYAMGWYRQAPGKERELVAAISWSGGRTYYADSVKGRFTISRDNAKNTVYLQMNSLKPEDTAVYYCNAPYWTSKSRFDYWGQGTQVTVSS”: the “polyreactivity (PSR sort gate)” value is listed as “low polyreactivity”.

As to “QVQLVESGGGLVQAGGSLRISSAASGRTFATYVMGWYRQAPGKERELVASITRGGSTNYADSVKGRFTISRDNAKNTVYLQMNSLKPEDTAVYYCAASFLATYDYWGLGTQVTVSS”, the “polyreactivity (PSR sort gate)” value is listed as “low polyreactivity”.

“QVQLVESGGGLVQAGGSLRISSAASGSIFGRYAMGWYRQAPGKERELVAAISSGTSTYYADSVKGRFTISRDNAKNTVYLQRNSLIPEDTAVYYCAARRYSVRSGGTGRMYYWGQGTQVTVSS”: the “polyreactivity (PSR sort gate)” value is “high polyreactivity”.

“QVQLVESGGGLVQAGGSLRISSAASGSITPYYTMGWYRQAPGKERELVATITSGGNTYYADSVKGRFTISRDNAQNTVYLQLNSVKPEDTAVYYCAAEGVWGIFDYWGKGTQVTVSS”: the “polyreactivity (PSR sort gate)” value is given as “low polyreactivity”.

For the sequence “QVQLVESGGGLVQAGGSLRISWAASGFTFYTYMGWYRQAPGKERELVAAISWSGDSTYYADSVKGRFTISRDNAKNTVYLQMNSLKPEDTAVYYCIADHGGSRYDYWGQGTQVTVSS”, the “polyreactivity (PSR sort gate)” value is listed as “low polyreactivity”.

On to “QVQLVESGGGLVQAGGSLRKSCAASRGILETNAIGWYRQAPGKERELVAAIDFSAGSTYYADSVKGRFTISRDNAKNTVYLQMNSLKPEDTAVYYCATRLGVLYDYWGHGTQVTVSS”, for which the “polyreactivity (PSR sort gate)” value is listed as “low polyreactivity”.

“QVQLVESGGGLVQAGGSLRLAVLPPDLPSTLNDMGWYRQAPGKERELVAAITRGGSTNYADSVKGRFTISRDNAKNTVYLEMNSLKPEDTAVYYCAAPYAGWRDGGDYWGQGTQVTVSS”: the “polyreactivity (PSR sort gate)” value is reported as “low polyreactivity”.

As to “QVQLVESGGGLVQAGGSLRLCCAASGRTFPYYALGWYRQAPGKESELVAGITSNAGSTYYADSVKGRFSISRDNAKNTVYLHRHRLKAEDTAVYYCAKYGRATRGLDNYWGQGTQVTVSS”, the “polyreactivity (PSR sort gate)” value is listed as “high polyreactivity”.

As to “QVQLVESGGGLVQAGGSLRLFCAASGITSSYYAMLWYRQAPGKERDLVADISQSGGSTYYADSVKGRFTISRDNAKNTVYLQMNSLKPEDTAVYYWAADTYWWSYLYDYWGQGTQVTVSS”, the “polyreactivity (PSR sort gate)” value is given as “high polyreactivity”.

In the case of “QVQLVESGGGLVQAGGSLRLICAASALIFGAYTMGWYIQAPGKERELVAAIRRSGSTYYPDSVKGRFTISRDNAKNTVYLQMNSLKPEDTAVYYGNARIGPGRYTYYRSGYDYWGQGTQVTVSS”, the “polyreactivity (PSR sort gate)” value was “high polyreactivity”.

In the case of “QVQLVESGGGLVQAGGSLRLICAASGFIFGGYAMGWYRQAHGKERELVAAISSSGGSTYYADSVKGRFTISRDNAKNTVYLQMNSLKPEDTAVYYCAADRYYYRGRYYGYTREFDYWGQGTQVTVSS”, the “polyreactivity (PSR sort gate)” value was “high polyreactivity”.

As for “QVQLVESGGGLVQAGGSLRLICAASGFIFPVNAMGWYRQAPGKERELVAAITSSGGDTYYADSVKGRFTISRDNAKNTVYLQMNSLKPEDTAVYYFAAEYTQEQEDYDYWGQVTQVTVSS”, the “polyreactivity (PSR sort gate)” value was “low polyreactivity”.

On to “QVQLVESGGGLVQAGGSLRLICAASGFIFRRNARGWSRPAPGTERELVAAISSSGGSTYYADSVKGRFTISRDNAKNTVYLQMNSLKPEDTAVYYCATVLRVTRVDYWGQGTQVTVSS”, for which the “polyreactivity (PSR sort gate)” value is “high polyreactivity”.

On to “QVQLVESGGGLVQAGGSLRLICAASGFIFRSYAMGWYRQAPGKEREFDAGINRRGGSTYYADSVKGRFTISRDNAKNSVYLQMNILKPEDTAVYYCAAVYYNRVDYWGQGTQVTVSS”, for which the “polyreactivity (PSR sort gate)” value is “high polyreactivity”.

Consider “QVQLVESGGGLVQAGGSLRLICAASGFIFVWYAMGWYRQAPGKERELVAAISRRGGGTYYADSVKGRFTISRDNAKNTVYLQMNSLKPEDTAVYYCAAGSYYRYGYDFNYWGQGTQVTVSS”, for which the “polyreactivity (PSR sort gate)” value was “high polyreactivity”.

Turning to “QVQLVESGGGLVQAGGSLRLICAASGFISSENAMGWYRQAPGKERELVAAISSGGSTNYADSVKGRFTISRDNAKYTVYLQMYSLKPEDTAVYYCNAEAIQAVYYAYEYWGQGTQVTVSS”, the “polyreactivity (PSR sort gate)” value is “low polyreactivity”.

For “QVQLVESGGGLVQAGGSLRLICAASGFTFAGYAMGWYRQARGKDRELVAGIRSSGARTYYADSVKGRFTISRDNAKNTVYIQMNSLKPEDTAVYYCAKTDGFYRGYGYWGQGTQVTVSS”, the “polyreactivity (PSR sort gate)” value is “low polyreactivity”.

For “QVQLVESGGGLVQAGGSLRLICAASGFTFARYAMGWYRQAPGKERELVAAITSAGSTSYADSVKGRFTISRDNAKNTVYLQMNSLKPEDTAVYYCAAPFTVRYNYWGQGTKVTVSS”, the “polyreactivity (PSR sort gate)” value is “high polyreactivity”.

“QVQLVESGGGLVQAGGSLRLICAASGFTFLTYAMGWYRQAPGKERELVAAIDSGDSTKYADSVKGRFTISRDNAKYTVYLQMNSLKPEDTAVYYCNASRRYHVLAPYDYWGQGTQVTVSS”: the “polyreactivity (PSR sort gate)” value is “low polyreactivity”.
